Measured values taken from article PMC8295636.

Molecular target: p53
Assay: two-hybrid

SV40T (natural protein)
fold increase of reporter expression over negative controls: > 130 times
